Data reported in patent publication US20190367628A1 (Novartis, published 2019).
Residue numbers refer to the chain shown, from its start.

B1: BCMA-CD3 bispecific antibody AB3 (bispecific antibody)
chain 1: not shown
chain 2: QSALTQPASVSGSPGQSITISCTGTSSDVGGYNYVSWYQQHPGKAPKLMIYDVSNRLRGVSNRFSGSKSGNTASLTISGLQAEDEADYYCSSYTSSSALYVFGSGTKVTVLGQPKAAPSVTLFPPSSEELQANKATLVCLISDFYPGAVTVAWKADSSPVKAGVETTTPSKQSNNKYAASSYLSLTPEQWKSHRSYSCQVTHEGSTVEKTVAPTECS
chain 3: not shown
B2: PI-61 (monoclonal phage clone) (other)
VH: QVQLQESGGGVVQPGRSLRLSCAASGFTFSSYGMHWVRQAPGKGLEWVAVISYDGSNKYYADSVKGRFTISRDNSKNTLYLQMNSLRAEDTAVYYCGGSGYALHDDYYGLDVWGQGTLVTVSS
VL: QSALTQPASVSGSPGQSITISCTGTSSDVGGYNYVSWYQQHPGKAPKLMIYDVSNRPSGVSNRFSGSKSGNTASLTISGLQAEDEADYYCSSYTSSSTLYVFGSGTKVTVL
B3: H2/L2-36 scFv (scFv)
scFv: QAQLQSSGGGVVQPGRSLRLSCAASGFTFSSYGMHWVRQAPGKGLEWVAVISYKGSNKYYADSVKGRFTISRDNSKNTLYLQMNSLRAEDTAVYYCGGSGYALHDDYYGLDVWGQGTLVTVSSSGGGGSGGGGSGGGGSGGGGSQSALTQPASVSGSPGQSITISCTGTSSDVGGYNYVSWYQQHPGKAPKLMIYEVSNRLRGVSNRFSGSKFGNTASLTISGLQAEDEADYYCSSYTSSSTLYVFGSGTKVTVL
B4: H2/L2-68 scFv (scFv)
scFv: B3 scFv with G8E, K54R, S56F, L110Q, E196D, R202S
B5: H2/L2-47 scFv (scFv)
scFv: B3 scFv with A2V, G8E, E196D, L201P, R202W
B6: H2/L2-18 scFv (scFv)
scFv: B3 scFv with S6G, N57H, E196D, L201P, R202W
B7: H2/L2-34 scFv (scFv)
scFv: QVQLQDSEGGVVQPGRSLRLSCAASGFTFSSYGMHWVRQAPGKGLEWVAVISYTGTKKYYADSVKGRFTISRDNSKNTLYLQMNSLRAEDTAVYYCGGSGYALHDDYYGLDVWGQGTLVTVSSSGGGGSGGGGSGGGGSGGGGSQSALTQPASVSGSPGQSITISCTGTSSDVGGYNYVSWYQQHPGKAPKLMIYDVSNRPWGVSNRFSGSKFGNTASLTISGLQAEDEADYYCSSYTSSSALYVFGSGTKVTVM
B8: H2/L2-80 scFv (scFv)
scFv: B3 scFv with A2V, K54T, E196D, L201A, R202W, T242A
B9: H2/L2-88 scFv (scFv)
scFv: B3 scFv with A2V, G8E, T242A
B10: H2/L2-20 scFv (scFv)
scFv: B3 scFv with F29V, K54T, E196D, T242A
B11: H2/L2-83 scFv (scFv)
scFv: B3 scFv with S6G
B12: PI-61 antibody (as measured by surface plasmon resonance) (antibody, V domains shown)
VH: B2 VH
VL: B2 VL
notes: also called parental clone

Target: T1, recombinant cynomolgus monkey BCMA (cynomolgus monkey, UniProt A0A2K5UD97 1-53)
T1 construct: The SET method says only 'recombinant cynomolgus monkey BCMA'; also called Cyno BCMA; cynoBCMA
Assay: solution equilibrium titration (SET, MSD); apparent KD; bispecific at a fixed concentration, BCMA titrated in solution

Row | Binder | Kd [nM]
1 | B1 | 0.105

Target: T2, recombinant human BCMA (human, UniProt Q02223 1-54, limits assumed)
T2 construct: The SET method says only 'recombinant human BCMA'; also called hBCMA; TNFRSF17
T2 sequence (looked up): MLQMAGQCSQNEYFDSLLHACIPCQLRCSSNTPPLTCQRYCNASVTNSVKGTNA
Assay: as above

Row | Binder | Kd [nM]
2 | B1 | 0.0615

Target: T3, Human BCMA-His-APP-Avi (human, biotinylated (captured on streptavidin plate; site not stated))
T3 construct: also called His-APP-Avi-tagged human BCMA
T3 chain: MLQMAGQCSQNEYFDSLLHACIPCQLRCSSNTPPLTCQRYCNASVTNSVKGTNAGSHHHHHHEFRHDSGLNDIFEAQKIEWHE
Assay: monoclonal phage ELISA, anti-M13-HRP, Abs450 against fold dilution of phage

Row | Binder | binding result
3 | B2 | binds

Target: T4, Cyno BCMA APP-Avi (cynomolgus, biotinylated (site not stated))
T4 construct: It was used as soluble biotinylated antigen; also called biotinylated cyno BCMA
Assay: flow cytometry of single yeast clone displaying the scFv, labelled with 20 nM biotinylated cyno BCMA, streptavidin/neutravidin-DyLight 633 detection
Description: (§1) For the fourth round of screening, yeast from the third round output were pelleted, washed, and resuspended in 200 mL SD-ura broth with 1% raffinose, 2% galactose, and incubated for 22 hours at 20° C. to induce expression. […] The first sample was incubated with human BCMA for 45 min at room temperature, pelleted, washed twice with PBSF, and then resuspended in 1 mL PBSF (PBS with 0.1% BSA). The second sample was incubated with human BCMA for 45 minutes at room temperature. Both samples were pelleted, washed twice with PBSF, and resuspended in 200 uL of PBSF+a 1:30 dilution of rabbit anti-cMyc-FITC (Abcam)+a 1:100 dilution of neutravidin-dylight 633 (Invitrogen). Samples were incubated at 4 C for 30 min, pelleted, washed twice with PBSF, resuspended in 3 mL PBSF, filtered through 40 um filters, then sorted using flow cytometry on a FACS Aria cell sorter (Becton Dickinson Biosciences, San Jose, Calif.). Approximately 5×10⁵ yeast were isolated and resuspended in 4 mL SD-ura broth with 2% glucose and grown overnight at 30° C.
(§2) Each sample plate was used to create three test plates for flow cytometric analysis. […] Labeling was essentially as above for sorting, except using 1:200 each streptavidin-dylight 633 (Invitrogen) and neutravidin-dylight 633 (Invitrogen) in PBSF as secondary reagent and excluding any anti-cMyc antibody. The test plates were analyzed on a Cytoflex flow cytometer (Beckman Coulter, Brea, Calif.)

T4 sequence (chain, as listed by the source limits assumed): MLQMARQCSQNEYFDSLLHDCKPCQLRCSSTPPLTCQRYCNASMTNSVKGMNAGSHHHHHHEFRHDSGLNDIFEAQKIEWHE

Row | Binder | MFI [MFI]
4 | B3 | 6430
5 | B4 | 16200
6 | B5 | 14200
7 | B6 | 19900
8 | B7 | 10400
9 | B8 | 17900
10 | B9 | 4480
11 | B10 | 20700
12 | B11 | 10700

Target: T4, Cyno BCMA APP-Avi
Assay: flow cytometry of single yeast clone displaying the scFv, labelled with 900 pM biotinylated cyno BCMA, streptavidin/neutravidin-DyLight 633 detection
Description: as §1, §2

Row | Binder | MFI [MFI]
13 | B3 | 5590
14 | B4 | 7380
15 | B5 | 5930
16 | B6 | 7180
17 | B7 | 6050
18 | B8 | 6540
19 | B9 | 6440
20 | B10 | 7030
21 | B11 | 4880

Target: T5, human BCMA (antigen of the surface plasmon resonance measurement of PI-61) (human, UniProt Q02223 1-54, limits assumed)
T5 construct: Construct used in the SPR experiment is not described
T5 sequence (looked up): T2 sequence (looked up)
Assay: surface plasmon resonance

Row | Binder | Kd [nM]
22 | B12 | ~34

Target: T6, cynomolgus BCMA (antigen of the surface plasmon resonance measurement of PI-61) (cynomolgus, UniProt A0A2K5UD97 1-53)
T6 construct: Construct used in the SPR experiment is not described; also called cyno BCMA; not shown: The carrier or tag of the soluble cyno BCMA used in SPR
Assay: surface plasmon resonance

T6 sequence (A0A2K5UD97 entry or part of it limits assumed): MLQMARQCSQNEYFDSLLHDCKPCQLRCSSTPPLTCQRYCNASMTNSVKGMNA

Row | Binder | Kd [nM]
23 | B12 | ~240
